Values quoted from earlier work in US6126956A, “Subcutaneous implant” (priority 1998, dated 2000).
Where two headings read alike, the source gives them in different places.

Settings: coated EVA with hole in one face, or coated hemisphere with exposed cavity

Row | Substance | release kinetics from prior polymer devices | release kinetics from prior polymer devices (listed as insulin)
1 | albumin | zero order kinetics | 
2 | Insulin | near constant release rates | zero order kinetics
